Test results as given in patent US20250213647A1, “CHEMOKINE RECEPTORS AND ALPHA1 ADRENERGIC RECEPTORS/VASOPRESSIN RECEPTORS 1A HETEROMERS AS DRUG TARGETS FOR DISEASE” (UNIVERSITY OF SOUTH FLORIDA, priority 2022, published 2025).
Like-named read-outs stand apart in the source and are kept apart here. One block for each molecule: values may come before it.

What was measured:
[1] = biological target: T1, CCR2 (Homo sapiens, UniProt P41597); test: BRET assay for β-arrestin recruitment, HEK293T with CCR2-Rluc and β-arrestin-YFP without α1b-AR; type: cell-based
T1 sequence (P41597 whole entry): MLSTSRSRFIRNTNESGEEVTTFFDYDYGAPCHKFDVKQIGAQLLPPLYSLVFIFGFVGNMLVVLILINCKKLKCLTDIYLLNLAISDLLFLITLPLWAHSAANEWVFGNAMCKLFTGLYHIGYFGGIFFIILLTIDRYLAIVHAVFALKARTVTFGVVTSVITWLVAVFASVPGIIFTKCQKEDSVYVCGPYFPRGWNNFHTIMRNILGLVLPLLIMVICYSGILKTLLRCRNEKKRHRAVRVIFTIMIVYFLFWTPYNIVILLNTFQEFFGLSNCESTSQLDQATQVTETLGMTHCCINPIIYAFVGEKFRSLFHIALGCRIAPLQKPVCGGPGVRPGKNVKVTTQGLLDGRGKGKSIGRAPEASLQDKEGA
Method: (§1) β-arrestin recruitment was measured by BRET, as described (Armando, 2014; Berchiche, 2011). In brief, HEK293T cells were plated in a 6-well plate and transfected with 0.1 μg of CCR2-RluII and 1.9 μg β-arrestin-YFP with 0.1 μg pcDNA3.1 or α1b-AR. One day after transfection, cells were re-plated into 96-well poly-L lysine precoated plates. After overnight incubation, cells were replaced with 0.1% glucose/PBS. Coelenterazine H in a final concentration of 5 μM was added to cells and incubated at room temperature for 3 min. […] The BRET changes were calculated by subtracting the BRET signal of untreated cells.

[2] = biological target: T1, CCR2; test: Chemotaxis assay, THP-1 cells toward CCL2 (CCR2-mediated); type: cell-based; parameters: host or cells: THP-1; settings: CCL2 10 nM, FIG. 23E
Method: Cell migration was measured employing the Neuroprobe (Gaithersburg, MD, USA) ChemoTx® Disposable Chemotaxis System. A 96-well Boyden-chamber (30 μL/well, 8 μm pores, 1×10^5 pores/cm^2 pore density) was selected for all chemotaxis experiments. Bottom wells of the Boyden-chamber were loaded with 30 μL of test substances at various concentrations. Top wells of the membrane were loaded with 25 μL of THP-1 cells, THP-1_ADRA1B^KO, wild type THP-1 cells after clonal expansion (=control for THP-1_ADRA1B^KO) or freshly isolated monocytes (200 cells/μL). THP-1 cells were suspended in depleted RPMI1640 (0.5% HyClone™ fetal bovine serum, Sigma); Freshly isolated monocytes were suspended in RPMI1640 (0.5% human platelet poor plasma, Sigma). After 3 hours, transmigrated cells were counted utilizing the Cytation 1 plate reader (BioTek) by direct imaging in high contrast bright field (4×) and post-imaging particle analyses with Gen5 (v3.05) Imaging & Microscopy Software (BioTek). The chemotactic index (CI) was calculated as the ratio of cells that transmigrated in the presence versus the absence of the test solutions.

[3] = biological target: T1, CCR2; test: Gαi activation assay (TRUPATH BRET), HEK293T cells transfected with CCR2 plus pcDNA3 (CCR2 alone); type: cell-based
Method: (§2) HEK293T cells were plated in a 6-well plate and transfected with 0.2 μg each of Gαi1-Rluc8, Gβ3 and Gγ9-GFP2 (Trupath) together with 0.2 μg of mouse or human CCR2 with either pcDNA3.1 or α1b-AR. One day after transfection, cells were trypsinized and replated to 96-well poly-L lysine precoated plates. After overnight incubation, cells were replaced with 0.1% glucose/PBS. Prolume Purple (NanoLight Tech.) or coelenterazine 400a in a final concentration of 5 μM were added in experiments with human or mouse CCR2, respectively, and incubated at room temperature for 3 min. Ligands at various concentrations were added to cells and incubated at room temperature for 5 min before luminescence was measured at 410 nm and 515 nm. […] The BRET changes were calculated by subtracting the BRET signal of untreated cells.

[4] = system: THP-1 cells (CCR2-mediated Gαi signaling); test: Cyclic AMP measurement in forskolin-stimulated THP-1 cells; type: cell-based, human; settings: for % inhibition of cAMP production by CCL2: 100 nM CCL2, FIG. 2F
Method: (§3) Cyclic AMP amounts were measured using the cAMP complete enzyme immunoassay kit, acetylated format (Enzo Life Sciences). 4×10^5 cells were incubated with forskolin/isobutylmethylxanthine (10 μM/0.5 mM final concentrations) in 0.1% BSA/10 mM Hepes-buffered RPMI and treated with CCL2 in the presence or absence of 1 μM PE, 1 μM PT or 100 nM NE at 37° C. for 15 min. The cells were lysed by incubating with 0.1 M HCl at room temperature for 20 min. The cAMP amounts in the lysate supernatant were measured following the manufacturer's instructions.

[5] = system: CXCR4; settings: previous observations (Gao, 2018); cited from earlier work
[6] = biological target: T1, CCR2; test: Radioligand competition binding assay, [125I]-CCL2, crude membrane preparations of THP-1 cells; parameters: host or cells: THP-1; settings: THP-1 cells pretreated with vehicle; mean±SE, n=3; read-out: IC50 of CCL2 to displace [125I]-CCL2
Method: Cells were then centrifuged at 30,000× g (20 min, 4° C.), the supernatant was discarded, and pelleted cell fragments were snap-frozen in liquid nitrogen. The cell pellets were resuspended in 50 mM HEPES, 5 mM MgCl2, 1 mM CaCl2, 0.1% w/v BSA, pH 7.2, and then incubated with 50 pM [^125I]-CCL2, 1× Xpert Protease Inhibitor Cocktail (GenDEPOT), and varying concentrations of CCL2 for 1.5 h at 25° C. Bound [^125I]-CCL2 was collected via vacuum filtration using buffer containing 10 mM HEPES (pH 7.4) and 0.5 M NaCl at 4° C., and a cell harvester (Brandel) equipped with glass fiber filters. Radioactivity was measured in a gamma counter at 70% efficiency.

[7] = biological target: T2, CCR2:α1b-AR heteromers (Homo sapiens, UniProt P35368+P41597); test: BRET assay for β-arrestin recruitment, HEK293T co-expressing CCR2-Rluc, β-arrestin-YFP and α1b-AR; type: cell-based; parameters: expressed in transfected cells; settings: CCL2 plus vehicle; FIG. 5D
T2 sequence (P41597 whole entry): as above
T2 sequence (P35368 whole entry): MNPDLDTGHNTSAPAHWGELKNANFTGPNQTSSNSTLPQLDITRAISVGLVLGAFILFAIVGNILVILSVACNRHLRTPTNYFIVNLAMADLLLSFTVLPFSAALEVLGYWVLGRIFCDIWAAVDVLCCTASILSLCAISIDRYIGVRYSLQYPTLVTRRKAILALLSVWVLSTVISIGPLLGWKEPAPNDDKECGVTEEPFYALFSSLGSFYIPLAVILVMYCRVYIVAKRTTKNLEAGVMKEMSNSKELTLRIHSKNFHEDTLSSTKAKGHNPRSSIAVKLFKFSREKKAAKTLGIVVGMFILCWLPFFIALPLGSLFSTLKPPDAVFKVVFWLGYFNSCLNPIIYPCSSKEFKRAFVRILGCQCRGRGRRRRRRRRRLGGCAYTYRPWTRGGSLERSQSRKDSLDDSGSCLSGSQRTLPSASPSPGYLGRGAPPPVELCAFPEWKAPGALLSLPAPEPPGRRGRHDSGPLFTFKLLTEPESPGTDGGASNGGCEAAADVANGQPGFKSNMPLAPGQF
Method: as §1

[8] = biological target: T3, α1b-AR:CCR2 heteromer (Homo sapiens, UniProt P35368+P41597); test: Gαi activation assay (TRUPATH BRET), HEK293T cells transfected with CCR2 plus α1b-AR; type: cell-based
T3 construct: expressed in transfected cells; host or cells: HEK293T
T3 sequence (P41597 whole entry): as the sequence (P41597 whole entry) above
T3 sequence (P35368 whole entry): as the sequence (P35368 whole entry) above
Method: as §2

[9] = biological target: T1, CCR2; settings: higher for CCR2; cited from earlier work
[10] = biological target: T2, CCR2:α1b-AR heteromers; test: PRESTO-Tango β-arrestin recruitment assay, HTLA cells with CCR2-Tango plus α1b-AR; type: cell-based; parameters: Tango module of the TANGO vector (C); expressed in transfected cells; host or cells: HTLA
Method: The assays were performed as described previously (Albee, 2017; Gao, 2022; Albee, 2018; Eby, 2017; Cheng, 2017). HTLA cells were seeded in a 6-well plate and transfected with 750 ng FLAG-CCR2-Tango together with 750 ng pcDNA3.1 or HA-α1b-AR using TransIT-2020 Transfection Reagent. The next day, cells (75,000 cells/well) were plated onto poly-L-Lysine pre-coated 96-well plates and allowed to attach to the plate surface for at least 4 hours prior to treatment. Cells were treated with receptor ligands at the concentrations indicated in the figure legends for 2 h and then replaced with fresh full medium and incubated overnight at 37° C., 5% CO2 in a humidified environment. The following morning, medium was replaced with a 100 μL 1:10 mixture of Bright-Glo (Promega) and PBS. Plates were then incubated at room temperature for 10 min before measuring luminescence on a Biotek Synergy II plate reader. Relative luminescence units (RLU) are expressed as fold changes of RLU vs unstimulated cells.

[11] = biological target: T4, mouse CCR2 (Mus musculus, UniProt P51683); test: Gαi activation assay (TRUPATH BRET), HEK293T cells transfected with mouse CCR2; type: cell-based; settings: FIG. 9A
T4 construct: expressed in transfected cells; host or cells: HEK293T
T4 sequence (P51683 whole entry): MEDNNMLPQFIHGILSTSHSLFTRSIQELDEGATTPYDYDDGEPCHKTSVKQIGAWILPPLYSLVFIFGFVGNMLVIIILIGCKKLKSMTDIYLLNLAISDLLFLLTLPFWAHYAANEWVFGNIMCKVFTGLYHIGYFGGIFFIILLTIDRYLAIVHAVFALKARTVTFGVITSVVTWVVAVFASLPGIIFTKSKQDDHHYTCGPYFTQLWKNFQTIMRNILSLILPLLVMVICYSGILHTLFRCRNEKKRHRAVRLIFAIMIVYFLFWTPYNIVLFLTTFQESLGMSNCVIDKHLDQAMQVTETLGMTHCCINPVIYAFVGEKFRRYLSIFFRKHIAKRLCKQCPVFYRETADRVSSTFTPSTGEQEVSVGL
Method: as §2

[12] = system: THP-1_ADRA1B^KO cells; test: Cyclic AMP measurement in forskolin-stimulated THP-1_ADRA1B^KO cells; type: cell-based, human; settings: FIG. 2B
Method: as §3

Molecule: COc1ccc(C2(O)CCC(N3CC[C@@H](NC(=O)CNC(=O)c4cccc(C(F)(F)F)c4)C3)CC2)cn1 (some centres unmarked) [INCB3284]
effect on the CCL2-induced BRET signal (CCR2-Rluc / β-arrestin-YFP) ([1]; 10 μM PE, PT or 100 nM INCB3284, FIG. 5C): could be inhibited | inhibition of CCL2-induced chemotaxis [2]: more than 95%

effect on CCL2-induced Gαi1 activation ([3]; cells transfected with CCR2 alone, 10 μM PE or PT, FIG. 4B, 4E): did not affect
Molecule: NC[C@H](O)c1ccc(O)c(O)c1 [norepinephrine]
effect on the effects of CCL2 on cAMP production ([4]; forskolin-stimulated THP-1 cells, 1 μM PE, 1 μM PT or 100 nM NE, 15 min at 37° C., FIG. 4G, 4H): inhibited the effects of CCL2 on cAMP production

Molecule: COc1cc2nc(N3CCN(C(=O)c4ccco4)CC3)nc(N)c2cc1OC [prazosin]
CXCR4-mediated chemotaxis of primary human vascular smooth muscle cells [5]: inhibit

IC50 [6]: 0.167 ± 0.023 nM | bottom plateau (BRET change), Gαi1 activation by CCL2 ([3]; cells transfected with CCR2 alone, FIG. 1B): −0.03±0.001 | EC50 ([3]; cells transfected with CCR2 alone, FIG. 1B, read-out: EC50 of CCL2, Gαi1 activation): 3.31 nM | bottom plateau, Gαi1 activation by human CCL2 ([3]; human CCR2, FIG. 9A): −0.058±0.004 | EC50 ([3]; human CCR2, FIG. 9A, read-out: EC50 of human CCL2, Gαi1 activation): 1.4 ± 0.8 nM | EC50 [7]: 3.7 ± 0.5 nM | Top plateau, β-arrestin recruitment BRET [7]: 0.06±0.001 | bottom plateau, CCL2-induced Gαi activation ([8]; CCL2 plus vehicle, FIG. 4C): −0.04±0.002 | EC50 ([8]; CCL2 plus vehicle, FIG. 4C, read-out: EC50 of CCL2 to induce Gαi activation): 0.9 ± 0.25 nM | bottom plateau, CCL2-induced Gαi activation ([8]; CCL2 plus vehicle, FIG. 4D): −0.04±0.002 | EC50 ([8]; CCL2 plus vehicle, FIG. 4D, read-out: EC50 of CCL2 to induce Gαi activation): 1.3 ± 0.4 nM | bottom plateau, CCL2-induced Gαi activation ([8]; CCL2 plus vehicle, FIG. 4F): −0.042±0.002 | EC50 ([8]; CCL2 plus vehicle, FIG. 4F, read-out: EC50 of CCL2 to induce Gαi activation): 1.5 ± 0.5 nM | bottom plateau (BRET change), Gαi1 activation by CCL2 ([8]; cells transfected with CCR2 plus α1b-AR, FIG. 1B): −0.037±0.001 | EC50 ([8]; cells transfected with CCR2 plus α1b-AR, FIG. 1B, read-out: EC50 of CCL2, Gαi1 activation): 0.94 ± 0.2 nM | EC50 ([10]; CCL2 alone, FIG. 5B): 1.6 ± 1.3 nM | efficacy to induce β-arrestin recruitment to CCR2 ([10]; agonist alone): 43±5 fold change RLU | efficacy of CCL2 relative to phenylephrine to recruit β-arrestin to CCR2 ([10]; higher): 18 fold | EC50 ([1]; FIG. 5C, read-out: EC50 of CCL2, BRET between CCR2-Rluc and β-arrestin-YFP): 3.5 ± 0.9 nM | bottom plateau, Gαi1 activation by human CCL2 [11]: −0.073±0.009 | EC50 ([11]; read-out: EC50 of human CCL2, Gαi1 activation): 3.5 ± 3.1 nM
Molecule: CCL2: chemokine (C-C motif) ligand 2, cognate agonist of CCR2, CCR3 and CCR5
% inhibition of cAMP production by CCL2 ([4]; THP-1 cells incubated with non-targeting siRNA): 66±5% | % inhibition of cAMP production by CCL2 ([4]; THP-1 cells incubated with α1B-AR siRNA): 46±4% | reduction of cAMP levels by CCL2 ([4]; forskolin-stimulated THP-1 cells, 100 nM CCL2, 15 min at 37° C., FIG. 2B): 56±6% | binding affinity of CCL2 for CCR2 relative to CCR3 and CCR5 [9]: approximately 100 fold | inhibition of cAMP production by CCL2 ([12]; forskolin-stimulated THP-1_ADRA1B^KO cells, 100 nM CCL2, 15 min at 37° C.): 30±4%

B1: CCL1: Chemokine (C-C motif) ligand 1, selective agonist of CCR8 (protein, UniProt P22362 24-96, looked up)
C-C motif chemokine 1: KSMQVPFSRCCFSFAEQEIPLRAILCYRNTSSICSNEGLIFKLKRGKEACALDTVGWVQRHRKMLRHCPSKRK
inhibition of forskolin-stimulated cAMP production by CCL1, THP1 vs THP-1_ADRA1B^KO cells ([12]; 100 nM CCL1, 15 min at 37° C.): indistinguishable
